The values below come from article PMC7654431.

The target in this data set is T7 DNA polymerase gp5;thioredoxin (trx) (bacteriophage T7;Escherichia coli, UniProt P00581;P0AA25 1-704;2-109, |). Briefly: SEC-SAXS-MALS. In general terms: SEC sorts molecules by how far they enter the pores of the column.
Sequence of T7 DNA polymerase gp5;thioredoxin (trx) (P00581 whole entry, chain 1 of 2): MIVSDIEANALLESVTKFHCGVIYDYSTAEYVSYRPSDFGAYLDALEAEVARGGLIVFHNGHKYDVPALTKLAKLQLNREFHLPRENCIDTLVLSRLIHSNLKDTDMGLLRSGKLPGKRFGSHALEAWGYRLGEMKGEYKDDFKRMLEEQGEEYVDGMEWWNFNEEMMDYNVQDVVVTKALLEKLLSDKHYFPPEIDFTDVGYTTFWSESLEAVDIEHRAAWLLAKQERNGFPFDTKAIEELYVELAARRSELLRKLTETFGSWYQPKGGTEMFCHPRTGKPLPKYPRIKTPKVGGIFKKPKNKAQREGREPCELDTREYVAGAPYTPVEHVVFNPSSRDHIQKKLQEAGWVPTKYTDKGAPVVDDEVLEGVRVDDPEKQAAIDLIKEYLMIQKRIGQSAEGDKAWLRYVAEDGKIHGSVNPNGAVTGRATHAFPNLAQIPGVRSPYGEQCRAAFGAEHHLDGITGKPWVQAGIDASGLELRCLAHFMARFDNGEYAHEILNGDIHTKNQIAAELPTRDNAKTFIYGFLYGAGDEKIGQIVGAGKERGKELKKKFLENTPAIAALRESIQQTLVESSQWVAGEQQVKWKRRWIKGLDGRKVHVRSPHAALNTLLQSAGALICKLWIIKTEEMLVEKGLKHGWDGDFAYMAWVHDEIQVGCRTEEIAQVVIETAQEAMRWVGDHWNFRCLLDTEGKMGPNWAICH
Sequence of T7 DNA polymerase gp5;thioredoxin (trx) (P0AA25 2-109, chain 2 of 2): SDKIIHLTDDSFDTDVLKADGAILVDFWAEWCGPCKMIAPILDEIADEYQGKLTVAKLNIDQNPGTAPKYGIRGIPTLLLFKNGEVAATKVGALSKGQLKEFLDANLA

B1: SAXS primer/template (dsDNA)
DNA 1: TGGCAGGCAGGTGGTCTTGCCGGTC
DNA 2: GATCCCTCGACCGGCAAGACCACCTGCCTGCCA
modifications: 3'-terminal ddC on primer
B1: the binding result was “binds”.
